Our source for the relative density of the co-precipitated COG1-HA band after 24 h, relative density of the co-precipitated COG1-HA band after 48 h and BiFC fluorescence intensity values is article PMC10227007.

Test [1] concerns the target MYC-OsSERL2 (overexpression line MYC-OsSERL2-OE1) (Oryza sativa japonica cv. Zhonghua 11 (ZH11)). Put plainly: co-IP; seedlings of COG1-HA-L1/MYC-OsSERL2-OE1 treated at 4 °C for 0, 24 and 48 h; total protein adjusted to equivalent levels of COG1-HA; precipitated with Anti-c-Myc Magnetic Beads, COG1-HA band measured by Image J (0 h = 1.0).
For test [2], the target named is OsSERL2-MYC-cCFP (Oryza sativa japonica cv. Zhonghua 11 (ZH11)). Put plainly: split reporter (BiFC, NanoBiT); BiFC in rice protoplasts, nVenus and cCFP fusions co-expressed, YFP fluorescence by confocal microscopy (Leica TCS SP5); in one experiment the protoplasts were kept at 28 °C or 4 °C for 24 h and the intensity measured by Image J.

In the case of “COG1-HA (from the COG1::COG1-HA transgene, line COG1-HA-L1) (receptor)”, in test [1], the relative density of the co-precipitated COG1-HA band after 24 h at 4 °C, against 0 h (1.0) (relative to 0 h (1.0)) came to 4.7 and the relative density of the co-precipitated COG1-HA band after 48 h at 4 °C, against 0 h (1.0) (relative to 0 h (1.0)) was determined as 5.8.

Consider COG1-HA-nVenus (receptor), for which the BiFC fluorescence intensity at 4 °C for 24 h, relative to 28 °C (1.0) (relative to 28 °C (1.0)) in test [2] was determined as 4.1.
